The target in experiment [1] is T1, cynomolgus monkey CCR8 (cynomolgus monkey, UniProt G7NYJ2 1-355).
T1 construct: whole, on cells; also called CynoCCR8
The experiment can be described thus: KinExA, cell line overexpressing monkey CCR8; monkey CCR8 cell line. Here is the method: To 200 mg of PMMA hard beads was added 30 μg of Goat Anti-Human IgG Fc antibody, and the mixture was supplemented with a coating solution to 1.0 mL, with a buffer composition of 1×PBS, pH7.4, to ensure that the beads were completely suspended in the solution. After being spun at room temperature for 2 h, the beads were either allowed to settle naturally or centrifuged briefly at low speed, and the supernatant was removed. 1 mL of blocking buffer (1×PBS, pH7.4, containing 10 mg/mL BSA) was added to ensure that the beads were resuspended in the blocking solution, and the beads were spun at room temperature for 1 h. An appropriate concentration of PR005565, PR006155 or PR006166 was used as the 100% signal value, and PBS blank was used as the background value. The net signal values were detected using 0.5 μg/mL Alexa Fluor® 647 Goat Anti-Human IgG. The cell line overexpressing human or monkey CCR8 was collected by centrifugation at 1500 g for 5 min, washed 2 times with 2 PBS and centrifuged at 350 g. The cells were collected in a 1.5 mL centrifuge tube. 10 mL of 0.2 nM PR005565, PR006155 or PR006166 solution was prepared. The total cells were supplemented with 0.2 nM PR005565, PR006155 or PR006166 solution to 0.82 mL, and diluted in a 2-fold gradient with 0.2 nM PR005565, PR006155 or PR006166 as a buffer. […]

The target in experiment [2] is T2, CD147.
T2 construct: also called HEK293-CD147
Nature of the experiment: flow cytometry, HEK293-CD147 cells.

For experiment [3], the target named is T3, TSPAN12-FLAG (UniProt O95859 1-305).
T3 construct: whole, on cells; order of protein and tag unknown; also called HEK293-TSPAN12; not shown: FLAG tag
T3 sequence (looked up): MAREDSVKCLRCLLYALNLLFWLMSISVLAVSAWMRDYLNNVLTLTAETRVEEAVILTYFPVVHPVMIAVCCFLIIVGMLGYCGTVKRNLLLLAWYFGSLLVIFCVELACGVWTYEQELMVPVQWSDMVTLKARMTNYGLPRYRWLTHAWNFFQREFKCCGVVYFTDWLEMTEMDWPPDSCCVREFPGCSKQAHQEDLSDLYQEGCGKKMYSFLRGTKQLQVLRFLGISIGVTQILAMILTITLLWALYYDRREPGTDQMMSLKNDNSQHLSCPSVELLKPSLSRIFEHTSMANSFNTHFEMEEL
Nature of the experiment: flow cytometry, HEK293-TSPAN12 cells. An excerpt:
(§1) After that, HEK293 cells were transfected with commercial MMP16 (protein information can be found under Uniprot P51512), CD40LG (protein information can be found under Uniprot P29965), CD147 (protein information can be found under Uniprot P35612), TSPAN4 (protein information can be found under Uniprot 014817), and TSPAN12 (protein information can be found under Uniprot 095859) plasmids for further verification of the binding of PR005565, PR006275 and PR006276 to these proteins. […] However, the binding values of PR005565, PR006275 and PR006276 to MMP16, CD40LG, CD147, TSPAN4 and TSPAN12 after transfection of HEK293 cells were all consistent with the signal values of HEK293 cells themselves. Thus, PR005565, PR006275 and PR006276 had no non-specific binding to MMP16, CD40LG, CD147, TSPAN4 and TSPAN12 proteins (see Table 50).

Experiment [4] concerns the target T4, MMP16 (UniProt P51512 120-607).
T4 construct: whole, on cells; also called HEK293-MMP16
The experiment can be described thus: flow cytometry, HEK293-MMP16 cells. For orientation: In flow cytometry, cells or beads pass a laser one at a time.

The target in experiment [5] is T5, TSPAN4-FLAG (UniProt O14817 1-238, limits assumed).
T5 construct: whole, on cells; order of protein and tag unknown; also called HEK293-TSPAN4; not shown: FLAG tag
T5 sequence (looked up): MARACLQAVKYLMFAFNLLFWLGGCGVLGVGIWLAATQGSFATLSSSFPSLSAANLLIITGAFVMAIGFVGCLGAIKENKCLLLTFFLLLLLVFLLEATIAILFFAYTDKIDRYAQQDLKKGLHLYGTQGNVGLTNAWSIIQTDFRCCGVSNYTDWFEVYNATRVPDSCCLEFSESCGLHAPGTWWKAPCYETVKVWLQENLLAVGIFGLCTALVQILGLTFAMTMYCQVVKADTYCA
Nature of the experiment: flow cytometry, transfected HEK293 cells.
Source text: as §1

Experiment [6] concerns the target T6, CD40LG (UniProt P29965 1-261).
T6 construct: whole, on cells; also called HEK293-CD40LG
T6 sequence (looked up): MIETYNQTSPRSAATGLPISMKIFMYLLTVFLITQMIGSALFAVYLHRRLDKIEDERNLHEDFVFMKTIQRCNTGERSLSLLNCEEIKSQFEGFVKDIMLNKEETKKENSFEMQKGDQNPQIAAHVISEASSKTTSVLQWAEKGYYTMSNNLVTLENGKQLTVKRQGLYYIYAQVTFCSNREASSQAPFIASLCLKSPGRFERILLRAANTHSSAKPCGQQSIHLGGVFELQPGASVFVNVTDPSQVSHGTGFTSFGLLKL
Nature of the experiment: flow cytometry, transfected HEK293 cells.
Source text: as §1

The target in experiment [7] is T4, MMP16. The experiment can be described thus: flow cytometry, transfected HEK293 cells.
Source text: as §1

The target of experiment [8] is T3, TSPAN12-FLAG. The experiment can be described thus: flow cytometry, transfected HEK293 cells.
Source text: as §1

In experiment [9] the target is T5, TSPAN4-FLAG. The experiment can be described thus: flow cytometry, HEK293-TSPAN4 cells.

T4 sequence (P51512 120-607): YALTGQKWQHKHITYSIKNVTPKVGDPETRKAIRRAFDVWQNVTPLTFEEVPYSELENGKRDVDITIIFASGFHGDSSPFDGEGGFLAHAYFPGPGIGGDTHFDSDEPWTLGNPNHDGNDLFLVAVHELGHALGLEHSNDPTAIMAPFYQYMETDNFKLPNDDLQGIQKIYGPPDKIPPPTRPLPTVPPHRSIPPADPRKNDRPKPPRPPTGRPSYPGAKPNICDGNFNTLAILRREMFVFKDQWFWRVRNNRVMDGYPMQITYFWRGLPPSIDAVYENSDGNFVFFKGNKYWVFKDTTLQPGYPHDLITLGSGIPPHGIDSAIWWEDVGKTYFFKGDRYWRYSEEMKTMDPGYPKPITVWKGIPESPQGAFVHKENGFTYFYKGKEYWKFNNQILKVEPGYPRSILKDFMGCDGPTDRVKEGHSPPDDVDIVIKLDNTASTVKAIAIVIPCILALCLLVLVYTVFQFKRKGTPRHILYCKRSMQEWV
T1 sequence (G7NYJ2 entry or part of it): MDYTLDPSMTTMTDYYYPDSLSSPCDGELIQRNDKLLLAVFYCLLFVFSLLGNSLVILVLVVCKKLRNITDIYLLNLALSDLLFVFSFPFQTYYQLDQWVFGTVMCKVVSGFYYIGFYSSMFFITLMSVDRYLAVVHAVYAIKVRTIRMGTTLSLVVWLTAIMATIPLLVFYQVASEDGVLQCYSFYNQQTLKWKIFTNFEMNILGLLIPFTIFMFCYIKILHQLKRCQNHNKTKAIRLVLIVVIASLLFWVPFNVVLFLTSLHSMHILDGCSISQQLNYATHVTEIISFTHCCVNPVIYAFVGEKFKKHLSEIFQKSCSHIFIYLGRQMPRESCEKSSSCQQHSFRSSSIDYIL

B1: PR005565 (antibody, human IgG1, kappa)
heavy: not shown
light: DIVMTQSPLSLPVTLGQPASISCRSSKSLLHSNAKIYLYWFQQRPGQSPRLLIYRMSNLASGVPDRFSGSGSGTDFTLKISRVEAEDVGVYYCMQHLEYPLTFGQGTKLEIKRTVAAPSVFIFPPSDEQLKSGTASVVCLLNNFYPREAKVQWKVDNALQSGNSQESVTEQDSKDSTYSLSSTLTLSKADYEKHKVYACEVTHQGLSSPVTKSFNRGEC
notes: IgG1 constant region; same VH/VL as PR004666
The term Kd denotes a measure of binding affinity in units of concentration. B1: binding in experiment [1] was characterised by a dissociation constant (Kd) of 0.177 nM. The MFI was determined as 212 in experiment [2], 219 in [3], 146 in experiment [4] and 207 in experiment [9]. The binding result in experiment [5], in experiment [6], in [7] and in experiment [8] was “no binding” each time.
